T1: 生长刺激表达基因2蛋白(ST2)抗原 (UniProt Q01638-2 19-328, limits assumed)
T1 construct: also called sST2; IL1RL1
T1 sequence (looked up): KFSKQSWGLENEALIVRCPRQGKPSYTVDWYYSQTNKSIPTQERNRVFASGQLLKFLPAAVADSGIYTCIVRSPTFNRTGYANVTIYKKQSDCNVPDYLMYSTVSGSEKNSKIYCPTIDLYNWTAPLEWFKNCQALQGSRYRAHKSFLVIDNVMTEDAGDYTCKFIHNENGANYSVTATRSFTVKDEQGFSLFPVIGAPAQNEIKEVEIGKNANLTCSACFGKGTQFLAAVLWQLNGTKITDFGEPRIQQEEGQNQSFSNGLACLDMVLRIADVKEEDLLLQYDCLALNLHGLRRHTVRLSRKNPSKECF

B1: Anti-ST2 11F9 (antibody, V domains shown)
VH: QIQLVQSGPELKKPGETVKLSCKASGYTFTDYSIHWVKQAPGKGLKWMGWIHTETGEPTYADDFKGRFAFSLETSASTAYFQINNLRNEDTATYFCARDDGLDYWGQGTSVTVSS
VL: DVQMIQSPSSLSASLGDIVTMTCQASQDTNINLNWFQQKPGKAPELLIYDTNNLEDGVPSRFSGSRYGTDFTLTISSLEDEDMATYFCLQHSYLPLTFGAGTKLELK

Columns and labels:
生长刺激表达基因2蛋白(ST2)抗原 [1] = target: T1, 生长刺激表达基因2蛋白(ST2)抗原; test: sandwich ELISA, antibody at 15.625 ng/ml captured on goat anti-mouse IgG, ST2 antigen, HRP anti-ST2 mAb detection
生长刺激表达基因2蛋白(ST2)抗原 [2] = target: T1, 生长刺激表达基因2蛋白(ST2)抗原; test: sandwich ELISA, antibody at 3.906 ng/ml captured on goat anti-mouse IgG, ST2 antigen, HRP anti-ST2 mAb detection
生长刺激表达基因2蛋白(ST2)抗原 [3] = target: T1, 生长刺激表达基因2蛋白(ST2)抗原; test: sandwich ELISA, antibody at 0.000 ng/ml (blank, no antibody), ST2 antigen, HRP anti-ST2 mAb detection
生长刺激表达基因2蛋白(ST2)抗原 [4] = target: T1, 生长刺激表达基因2蛋白(ST2)抗原; test: BLI, AMC sensor, antibody immobilised at 10 ug/ml, ST2 antigen in serial dilution
生长刺激表达基因2蛋白(ST2)抗原 [5] = target: T1, 生长刺激表达基因2蛋白(ST2)抗原; test: sandwich ELISA, antibody at 7.813 ng/ml captured on goat anti-mouse IgG, ST2 antigen, HRP anti-ST2 mAb detection
生长刺激表达基因2蛋白(ST2)抗原 [6] = target: T1, 生长刺激表达基因2蛋白(ST2)抗原; test: sandwich ELISA, antibody at 31.250 ng/ml captured on goat anti-mouse IgG, ST2 antigen, HRP anti-ST2 mAb detection
生长刺激表达基因2蛋白(ST2)抗原 [7] = target: T1, 生长刺激表达基因2蛋白(ST2)抗原; test: sandwich ELISA, antibody at 1.953 ng/ml captured on goat anti-mouse IgG, ST2 antigen, HRP anti-ST2 mAb detection

Molecule | OD450 (ref 630) (生长刺激表达基因2蛋白(ST2)抗原 [1]) [OD] | OD450 (ref 630) (生长刺激表达基因2蛋白(ST2)抗原 [2]) [OD] | OD450 (ref 630) (生长刺激表达基因2蛋白(ST2)抗原 [3]) [OD] | Kd (生长刺激表达基因2蛋白(ST2)抗原 [4]) [nM] | koff (生长刺激表达基因2蛋白(ST2)抗原 [4]) [s⁻¹] | kon (生长刺激表达基因2蛋白(ST2)抗原 [4]) [M⁻¹ s⁻¹] | OD450 (ref 630) (生长刺激表达基因2蛋白(ST2)抗原 [5]) [OD] | OD450 (ref 630) (生长刺激表达基因2蛋白(ST2)抗原 [6]) [OD] | OD450 (ref 630) (生长刺激表达基因2蛋白(ST2)抗原 [7]) [OD]
对照 (antibody) | 0.665 | 0.26 | 0.046 | 7.3 | 0.00723 | 990000 | 0.37 | 1.51 | 0.163
B1 |  |  |  | 0.761 | 0.000745 | 979000 |  |  | 
